Data on ten molecules can be found in patent US20160024207A1 (University of Texas, published 2016).

Experiment [1] deals with human EpCAM expressed on human carcinoma cells (PC3, MCF7) (human) (UniProt P16422). The experiment is described as follows: flow cytometry on MCF7 cells, mAb concentration 32 ng/ml, fluorescently labeled secondary antibody, 10,000 cells. Background: A flow cytometer gives signals particle by particle.
Experiment [2] shares this target. The experiment is described as follows: flow cytometry on MCF7 cells, mAb concentration 160 ng/ml, fluorescently labeled secondary antibody, 10,000 cells.
The target is the same in experiment [3]. The experiment is described as follows: flow cytometry on MCF7 cells, mAb concentration 6.4 ng/ml, fluorescently labeled secondary antibody, 10,000 cells.
The target is the same in experiment [4]. In words: NIR flow cytometry, IRDye 800CW-labeled isotype control mAb on PC3 cells.
Experiment [5] addresses recombinant human (rhu) EpCAM/Fc (960-EP, R&D Systems) (human) (UniProt P16422). The experiment is described as follows: flow cytometry of E. coli displaying scFv (APEx), EpCAM-Fc then fluorescent secondary antibody.
For experiment [6] the target is unchanged. The experiment is described as follows: Biacore kinetic analysis of scFv. On the technique in general: In SPR one partner is held on a chip, and binding of the other changes the refractive index at the surface.
The target of experiment [7] is human EpCAM expressed on human carcinoma cells (PC3, MCF7) (human) (UniProt P16422). In words: flow cytometry on PC3 cells, scFv then fluorophore-conjugated secondary antibody.
For experiment [8], the target named is T1, murine EpCAM on mouse 4T1 mammary carcinoma cells (mouse, UniProt Q99JW5 24-315).
T1 construct: whole, on cells; also called mouse EpCAM
T1 sequence (looked up): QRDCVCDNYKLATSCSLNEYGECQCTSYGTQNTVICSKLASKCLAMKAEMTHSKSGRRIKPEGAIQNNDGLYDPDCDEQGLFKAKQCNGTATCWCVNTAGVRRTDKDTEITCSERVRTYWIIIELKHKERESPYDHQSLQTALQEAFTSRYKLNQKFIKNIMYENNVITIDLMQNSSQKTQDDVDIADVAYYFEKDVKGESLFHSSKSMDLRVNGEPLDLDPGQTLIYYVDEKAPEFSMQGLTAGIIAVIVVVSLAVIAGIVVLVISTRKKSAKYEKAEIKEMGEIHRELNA
The experiment is described as follows: flow cytometry on mouse 4T1 cells, PE-labeled anti-mouse IgG. How it is done:
To determine whether mAbs specific for human EpCAM cross-react with murine EpCAM, the human cell line MCF7 (as described above) and 4T1 cells (mouse mammary carcinoma, CRL2539™, ATCC) were used. Hybridoma cells were grown and mAbs purified as above-described. Rat anti-mouse EpCAM, mAb G8.8 (Developmental Studies Hybridoma Bank, University of Iowa, Iowa City, Iowa) was utilized as a positive control for detection of EpCAM on the surface of 4T1 cells. Following incubation (20 min, on ice) with mAb, cells were washed with PBS-BSA and either DyLIGHT-488 conjugated donkey anti-rat IgG (Jackson ImmunoResearch) or PE-conjugated donkey F(ab′) 2 anti-mouse IgG (Jackson ImmunoResearch) was added at 5 μg per sample and incubated for an additional 20 min for detecting cells bound by rat anti-mouse or mouse anti-human EpCAM mAb, respectively. Cells were washed again with PBS-BSA and fixed in 2% paraformaldehyde prior to analyzing (10,000 events) on a BD FACSCalibur Flow Cytometer (BD Biosciences) using WinMDI2.9 software.

Experiment [9] has as its target T2, human EpCAM expressed on human carcinoma cells (PC3, MCF7) (human, UniProt P16422 24-314).
T2 construct: whole, on cells; also called native EpCAM; surface expressed EpCAM
T2 sequence (looked up): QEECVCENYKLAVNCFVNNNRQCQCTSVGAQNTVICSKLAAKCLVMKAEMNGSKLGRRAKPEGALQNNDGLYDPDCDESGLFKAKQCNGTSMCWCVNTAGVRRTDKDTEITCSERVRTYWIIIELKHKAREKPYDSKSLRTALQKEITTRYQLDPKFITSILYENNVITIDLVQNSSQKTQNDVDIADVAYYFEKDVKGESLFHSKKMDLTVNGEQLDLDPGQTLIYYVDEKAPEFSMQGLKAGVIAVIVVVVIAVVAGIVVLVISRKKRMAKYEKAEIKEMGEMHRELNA
The experiment is described as follows: flow cytometry on PC3 cells, 5 µg/ml mAb, PE-labeled anti-mouse IgG. How it is done:
PC3 cells (human prostate adenocarcinoma line, CRL1435™, ATCC, Manassas, Va.), grown to 80%-100% confluency in DMEM with 10% FBS, were treated with Trypsin-EDTA and resuspended in PBS containing 2% bovine serum albumin (BSA). One million cells per well were labeled with 5 μg/ml of mAb in a 200-μl volume and incubated on ice for 20 min. After washing with PBS-BSA, phycoerythrin (PE)-conjugated donkey F(ab′)2 anti-mouse IgG (Jackson ImmunoResearch, West Grove, Pa.) at 5 μg per sample was added for an additional 20-min incubation. Cells were washed again with PBS-BSA and fixed in 2% paraformaldehyde prior to analyzing (10,000 events) on a BD FACSCalibur Flow Cytometer (BD Biosciences, San Jose, Calif.). Analyses of mean fluorescence intensities (MFI) were performed using WinMDI2.9 software.

Experiment [10] deals with T3, recombinant human (rhu) EpCAM/Fc (960-EP, R&D Systems) (human, UniProt P16422 24-265).
T3 construct: Bought fusion protein; not shown: Fc part
T3 sequence (looked up): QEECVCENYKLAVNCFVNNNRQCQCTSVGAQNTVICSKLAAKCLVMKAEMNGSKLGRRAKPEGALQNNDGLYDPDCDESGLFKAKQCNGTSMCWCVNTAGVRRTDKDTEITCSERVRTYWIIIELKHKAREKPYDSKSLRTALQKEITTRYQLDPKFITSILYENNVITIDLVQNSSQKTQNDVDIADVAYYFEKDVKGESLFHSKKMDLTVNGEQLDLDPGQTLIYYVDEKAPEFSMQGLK
The experiment is described as follows: SPR, ratio of Fab KD values, reference mAb 9601 Fab. Here is the method:
(§1) In order to discriminate between monovalent and multivalent interactions on quantitative SPR measurements of KD, the binding affinities of the Fab fragments of mAbs were measured using SPR and a Biacore T100 instrument (GE Healthcare). Two flow cells of a CM5 chip were coated with goat anti-human IgG (Fc-specific) (Jackson ImmunoResearch) to approximately 8000 resonance units (RU) with an NHS/EDC Amine Coupling Kit BR-1000-50 (GE Healthcare). All measurements were made at 25° C. using HBS-EP+(10 mM HEPES, 150 mM NaCl, 3 mM EDTA, 0.05% v/v Tween 20, pH 7.4) as running buffer. EpCAM/Fc ligand (R&D Systems) was diluted in HBS-EP+ to 0.5 μg/ml and applied to the coated chip surface. Fab fragments were then tested at five different molar concentrations starting at 50 nM after performing a two-fold dilution series. Flow cells were regenerated with 100 mM phosphoric acid. All samples were applied in duplicate.

Experiment [11] deals with T3, recombinant human (rhu) EpCAM/Fc …. The experiment is described as follows: SPR (Biacore T100), EpCAM/Fc captured on anti-human IgG Fc chip, Fab as analyte, 25 C. Here is the method: as §1
For experiment [12] the target is unchanged. In words: SPR (Biacore T100), EpCAM/Fc captured, Fab as analyte; Fab fragment, not IgG. Here is the method:
as §1

Experiment [13] has the same target. The experiment is described as follows: Biacore kinetic analysis of scFv.

Broadly, the Kd is the concentration at which binding is half-saturated. The koff is a measure of how fast the partners let go of each other. In general, kon refers to the second-order rate constant of association.

Turning to “Veridex anti-EpCAM mAb VU-1D9 (antibody)”, the MFI stood at 106 in experiment [1], 321 in experiment [2] and 38 in experiment [3].
In experiment [4], “in-house IgG1 isotype control mAb 69 (antibody)” returned a Biological Activity, % (percentage of PC3 cells stained) of 3.2% and an MFI of 125 MFI units.
The matching figures for “commercial IgG2b isotype control mAb (BD Pharmingen) (antibody)”: 0.7% and 149 MFI units.
For the molecule “control scFv with no affinity to EpCAM (displayed on E. coli)”, in experiment [5], the MFI amounted to 13 MFI.

B1: anti-EpCAM scFv 7 (scFv, V domains shown, not shown: small tags and cut ends)
VH: QVQLQQSGPELEKPGGSVKISCKASGYSFTGYNMNWVKQSNGKSLEWIGNIDPYNGGSGFDQKFKGKATLTVDTSSSTAYMHLKSLTSEDSAVYYCAREYGSNFDYWGQGTTLTVSS
VL: DIQMTQSTSSLSASLGDRVTISCRASQDIGTYLNWYQQQADGTFKLLIYYTSRLHSGIPSRFSGSGSGTDFSLTISNLGQEDIATYFCQQGNTLPWTFGGGTKLEIK
modifications: linker not given
In the case of B1, in experiment [6], the Kd turned out to be 4.14 nM. Also, the MFI in experiment [7] was determined as 380 MFI; in experiment [5], 170 MFI.

B2: anti-EpCAM monoclonal antibody 7 (antibody, V domains shown)
VH: B1 VH
VL: B1 VL
notes: In-house mouse IgG1 from hybridoma; IRDye 800CW (and DOTA) labeled in the NIR flow cytometry; also called mAb 7
As to B2, the binding result in experiment [8] was “no binding”. Also, the “MFI fold increase relative to PE-conjugated secondary antibody alone” value in experiment [9] came to 3.9 fold.

B3: Fab fragment of mAb 7 (Fab, V domains shown)
VH: B1 VH
VL: B1 VL
notes: Fab made by ficin digestion of the mouse IgG1 mAb 7; also called 7 Fab; mAb 7 Fab fragment
In the case of B3, in experiment [10], the “fold increase in affinity above mAb 9601” value was found to be 7 fold. Further, in [11], the dissociation constant Kd amounted to 2.3 nM, the koff worked out at 0.00099 s⁻¹ and the kon was found to be 430000 M⁻¹ s⁻¹.

B4: Fab fragment of mAb 153 (Fab, V domains shown)
VH: QVQLQQSGAELVKPGTSVKLSCKASGYNFTSYWINWVKLRPGQGLEWIGDIYPGSGNSHYNEKFKSKATLTVDTSSSTAYMQLSSLASGDSALYYCARNYYGSSPFPMDYWGQGTSVTVSS
VL: DIVMTQSPSSLIVTAGEKVTMSCKSSQSLLNSGNQKNYLTWYQQKPGQPPKLLIYWASTRESGVPDRFTGSGSGTDFTLTLNSAQAEDLAVYYCQNDYTYPLTFGAGTKLEIK
As for B4, the “fold increase in affinity above mAb 9601” value in experiment [10] was found to be 28 fold. In [12], the Kd amounted to 0.54 nM. Moreover, in experiment [11], the Kd came out at 0.53 nM, the koff is 0.00012 s⁻¹ and the kon was 220000 M⁻¹ s⁻¹.

B5: anti-EpCAM monoclonal antibody 153 (antibody, V domains shown)
VH: B4 VH
VL: B4 VL
notes: In-house mouse IgG1 from hybridoma; In the NIR flow cytometry it carried IRDye 800CW (and DOTA)
With B5, the binding result in experiment [8] is “no binding”. Also, the “MFI fold increase relative to PE-conjugated secondary antibody alone” value in experiment [9] was found to be 4.8 fold.

B6: anti-EpCAM scFv 153 (scFv, V domains shown)
VH: B4 VH
VL: B4 VL
For the molecule B6, the Kd in experiment [13] came out at 0.21 nM.
